# Molecular target: hexa-His-β6 bundlin (soluble, recombinant WT β6 bundlin) (enteropathogenic Escherichia coli (EPEC) strain RN587/1)
# Assay: native MS
substance,measurement,value
"hexa-His-β6 bundlin (soluble, recombinant WT β6 bundlin) (natural protein)",stoichiometry N,2

# — publication PMC2719252
